# Patent US9744212B2, “Galectin-3C combination therapy for human cancer” (Texas Tech University System, priority 2011, dated 2017)
# What was measured:
# [1] = system: HUVEC; test: HUVEC chemotaxis (migration) toward U266 conditioned media; assay type: cell-based, human; conditions: U266 treated 48 h with 10 μg/mL Gal-3C, 5 nM Bor or both; 20% conditioned medium; ANOVA, Tukey's post-test
# Description: Chemotaxis of HUVEC Cells. Chemotaxis (migration) was analyzed with HUVEC cells as a measure of angiogenic potential as reported (86), using 50×10^3 cells/well and 24-well transwell inserts with 8-μm pores. […] As a negative control, EGM-2 medium alone was used. After incubation for 16 h, cells were removed from the upper chamber, and the migrated cells were visualized on the lower side of the filter after fixing and staining with 30% methanol, 10% acetic and 0.1% Coomassie Brilliant Blue. Next, the filters were extensively washed with water, and then air-dried and photographed using an inverted X71 microscope (Olympus, Center Valley, Pa., USA). The average number of cells in 4 random fields per filter was calculated. The studies were run in triplicate and the results are expressed as a migration index (MI), as follows: MI=number of cells migrated in the presence of conditioned medium/number of cells migrated in the presence of EGM-2 alone. […] All assays were run in triplicate.
# FIG. 3A is a graph of the results from the vascular endothelial cell migration assay. FIG. 3B is an image of the filters. […] Mean migration indexes (left; ±95% C.I.) expressed as the number of cells migrated in the presence of the indicated stimulus divided by the number of cells migrated in the presence of EBM-2 alone. […]
# [2] = system: human breast cancer; conditions: mouse model of human breast cancer, reference (60); cited from earlier work
# [3] = system: AKT/IKK pathway; test: Western blot of proteins in the NF-κB AKT/IKK pathway; assay type: cell-based; conditions: U266 and primary human MM cells; Gal-3C 10 μg/ml
# Source text: EXAMPLE 4 indicates Gal-3C impairs NF-kB activation induced by Bonin U266 cells. Recently, it has been shown that the mechanism of action of Boris more complex than originally thought and can be differ depending on the cell type. […] This effect potentially reduces the therapeutic effect of Bonin MM, because NF-kB activation in plasma cells is associated with anti-apoptotic pathways (91). […] Comparison of NFkB expression by Western blot. […] Equal amounts of lysates of human primary MM and U266 cells and media were fractionated by SDS-PAGE and transferred to nitrocellulose membranes. Primary antibodies were visualized with HRP-coupled goat anti-rabbit or anti-mouse IgGs using an ATK/IKK kit (Cell Signaling Technology, Danvers, Mass.).
# Upon IKK-mediated phosphorylation, IKBα dissociates from the NF-kB complex (p50 and p65 proteins). Free NF-kB is then phosphorylated on serine 529 of the p65 subunit and enters the nucleus where it regulates gene transcription.
# [4] = system: HUVEC; test: HUVEC tubule formation assay on Matrigel with U266 conditioned media; assay type: cell-based, human; conditions: 20% V/V conditioned medium of U266 treated 48 h with 10 μg/mL Gal-3C, 5 nM Bor or both; 16-hour incubation
# Description: HUVEC Tubule Formation Assay. A tubule formation assay was performed in vitro as described (86) to measure angiogenesis. Briefly, growth factor-reduced Matrigel (Becton Dickinson) was allowed to polymerize in the presence of 30 ng/mL recombinant basic fibroblastic growth factor (bFGF; R&D Systems) for 1 hour at 37° C.
# FIG. 5 is an image of the results from the In vitro tubule formation assay having 6 regions. Serum-starved HUVEC were allowed to form tubules on a […]™ surface in the presence of VEGF (positive control), EMB-2 medium alone (negative control), or EBM-2 supplemented with 20% V/V U266 conditioned media (c.m.). […] To evaluate the effect of different treatments on the ability of U266 cells to induce angiogenesis, a […]™-based tubule formation assay was performed in the presence of U266 conditioned media as described for the chemotaxis assay. Serum-starved (5×103) HUVEC were seeded on the […]™ surface in 200-μL EBM-2 medium supplemented with 20% V/V conditioned medium. Pictures were taken after 16-hour incubation in 5% CO2 at 37° C. The assay was run in triplicate and representative images are depicted in FIG. 5. As a positive control, EBM-2 medium supplemented with 20 ng/mL VEGF was used.
# [5] = system: VEGF; test: ELISA of VEGF in U266 cell-conditioned medium; assay type: cell-based, human; conditions: 48-hour culture with 10 μg/mL Gal-3C, 5 nM Bor or both
# Description: ELISA of VEGF and bFGF Levels. The levels of VEGF and bFGF were measured by direct ELISA as follows. Flat-bottom 96-well polycarbonate plates were coated at 4° C. with 50 μL/well cell culture supernatants diluted 1:25 in carbonate coating buffer (0.1 M NaHCO3, […]) at 4° C. overnight. Standard curves were obtained with purified recombinant human VEGF and bFGF (both from R&D Systems) serially diluted in coating buffer (10-fold serial dilutions from 1,000 to 0 ng/mL). After removing diluted supernatants or standards, and blocking with PBS supplemented with 1% W/V BSA for 1 hour at room temperature, plates were incubated for 1 hour at room temperature with mouse anti-human VEGF or rabbit anti-human bFGF primary antibodies (2 μg/mL in PBS, 50 μL/well Abeam, Mass., USA). Then, plates were washed twice with PBS with 0.025% V/V Tween-20 (300 μL/well) and incubated at room temperature with anti-mouse or anti-rabbit HRP-labeled secondary antibodies (0.2 μg/mL in PBS, 50 μL/well Abeam, Mass., USA) for 1 hour. The plates were washed thrice with PBS containing 0.025% V/V Tween-20 (300 μL/well), the TMB colorimetric substrate (Thermo Fisher Scientific, Waltham, Mass., USA) was added, and after 5 minutes the absorbance was measured (0.1 s) at 450 nm on a Victor 2 multimodal microplate reader (PerkinElmer, Billerica, Mass., USA). All samples were run in triplicates. […]
molecule,measurement,setting,value
"Gal-3C: N-terminally truncated human galectin-3 consisting of 143 carboxy-terminal amino acid residues, SEQ ID NO: 1 (protein) GAPAGPLIVPYNLPLPGGVVPRMLITILGTVKPNANRIALDFQRGNDVAFHFNPRFNENNRRVIVCNTKLDNNWGREERQSVFPFESGKPFKIQVLVEPDHFKVAVNDAHLLQYNHRVKKLNEISKLGISGDIDITSASYTMI",migration index compared with controls,[1],no significant difference
same,adverse side effects,[2],no evidence of adverse side effects
same,tumor growth and metastasis,[2],inhibited tumor growth and metastasis
same,"P-p65, P-Akt, P-IKKβ and P-IKKα (activation of the AKT/IKK pathway)",[3],inhibited
same,potential of U266 cells for induction of angiogenesis (tubule formation),[4],almost completely impaired
same,VEGF levels in U266 conditioned medium,[5],significantly reduced
